From patent US20260056186A1 (JIANGSU HENGRUI PHARMACEUTICALS, published 2026)
Changes are numbered by the printed parent chain.

B1: TACI-9-1-Fc (Fc fusion)
chain: STSCRKEQGKFYDHLLRDCISCASICGQHPKQCAYFCENKLDKTHTCPPCPAPEAEGAPSVFLFPPKPKDTLMISRTPEVTCVVVDVSHEDPEVKFNWYVDGVEVHNAKTKPREEQYNSTYRVVSVLTVLHQDWLNGKEYKCKVSNKALPSSIEKTISKAKGQPREPQVYTLPPSRDELTKNQVSLTCLVKGFYPSDIAVEWESNGQPENNYKTTPPVLDSDGSFFLYSKLTVDKSRWQQGNVFSCSVMHEALHNHYTQKSLSLSPGK
B2: TACI-9-14-Fc (Fc fusion)
chain: B1 chain with Y35A, F36Y
B3: TACI-9-2-Fc (Fc fusion)
chain: B1 chain with T2L, R5S
B4: TACI-9-6-Fc (Fc fusion)
chain: B1 chain with T2R, D18T
B5: TACI-9-9-Fc (Fc fusion)
chain: B1 chain with T2R, D18T, Y35R
B6: TACI-9-5-Fc (Fc fusion)
chain: B1 chain with T2L, K10E
B7: TACI-9-12-Fc (Fc fusion)
chain: B1 chain with Y35A
B8: TACI-9-15-Fc (Fc fusion)
chain: B1 chain with K6E, K10E, Y35A
B9: TACI-9-7-Fc (Fc fusion)
chain: B1 chain with T2R, D18A
B10: TACI-9-4-Fc (Fc fusion)
chain: B1 chain with T2L, K6Q
B11: TACI-9-10-Fc (Fc fusion)
chain: B1 chain with T2L, K6E, K10E
B12: TACI-9-3-Fc (Fc fusion)
chain: B1 chain with T2L, K6E
B13: TACI-9-11-Fc (Fc fusion)
chain: B1 chain with T2L, R5S, K6E, K10E
B14: TACI-9-8-Fc (Fc fusion)
chain: B1 chain with T2L, Y35A
B15: TACI-9-13-Fc (Fc fusion)
chain: B1 chain with F36Y

Target: T1, BAFF (Sino biological, 10056-HNCH) (UniProt Q9Y275 134-285, biotinylated in the blocking ELISA (site not stated))
T1 construct: also called BLyS
Assay: ELISA, BAFF coated at 1 ug/mL, anti-human IgG-HRP
Description: The BAFF binding activity of the TACI-Fc fusion proteins was assessed as follows: BAFF (Sino biological, 10056-HNCH) protein was diluted with a pH 7.4 PBS (BasalMedia, B320) buffer to 1 μg/mL, and the resulting dilution was added to a 96-well microplate (Corning, 3590) at 100 μL/well. The plate was incubated overnight at 4° C. After the liquid was discarded, 5% skim milk (BD, 232100), diluted with PBS, was added at 300 μL/well for blocking, and the plate was incubated at 37° C. for 2 h. After the blocking, the blocking solution was discarded, and the plate was washed 3 times with a PBST buffer (pH 7.4 PBS containing 0.10% tween-20). Serially diluted test antibody or fusion protein solutions were added at 100 μL/well, and the plate was incubated at 37° C. for 1 h. […] The plate was incubated at 37° C. for 1 h. After the plate was washed 3 times with PBST, the chromogenic substrate TMB (KPL, 5120-0077) was added at 100 μL/well. The plate was incubated at room temperature for 10-15 min, and 1 M H₂SO₄ was added at 50 μL/well to stop the reaction. The absorbance at 450 nm was measured using a microplate reader. Curves for the binding of the antibodies to the antigen were fitted using software, and EC₅₀ values were calculated.
The BAFF binding activity of the constructed TACI-Fc fusion proteins was assessed (see Example 2 for the experimental method), and the results are shown in Table 3: […]

| EC50 [nM] | Binder |
| --- | --- |
| 0.382 | B1 |
| 0.223 | B2 |
| 0.279 | B3 |
| 0.367 | B4 |
| 0.937 | B5 |
| 0.146 | B6 |
| 0.122 | B7 |
| 0.0869 | B8 |
| 0.727 | B9 |
| 0.469 | B10 |
| 0.12 | B11 |
| 0.265 | B12 |
| 0.195 | B13 |
| 0.2 | B14 |
| 0.433 | B15 |
